The values that follow come from patent US5863889A, “ICAM-1/LFA-1 short-chain peptides and method of using same” (The University of Kansas, priority 1996, dated 1999).

“Also recorded” adds a separate entry of the source.

Common to all, as to assay type: cell-based
The target in series [1] is T1, LFA-1 (CD11a) (Homo sapiens, UniProt P20701).
T1 construct: host or cells: Molt3 human T-cell leukemia line
Put plainly: Antibody binding assay (FACS): anti-LFA-1 mAb (mouse IgG anti-human CD11a) binding to Molt3 T-cells after peptide incubation. The following applies: for Fluorescence, % change from control of the medium fluorescence intensity: mAb CD11a, average ± standard error of runs. How it is done: A 1 ml quantity of the Molt3 inoculum was warmed to 37° C. and transferred by pipette into about 25 ml of a growth culture medium including RPMI 1640 lymphocyte growth medium (Fisher Scientific of St. Louis, Miss.) mixed with 10% by volume fetal calf serum, 100 units/ml penicillin, 100 μg/ml streptomycin and 2 mM glutamine. The inoculated culture was incubated for three to four days at 37° C. under a normal atmosphere having about 5% CO2 added thereto. This culture was capable of being maintained indefinitely by siphoning away the top (non-cell containing) layer and adding 50 ml (or more) of growth culture medium at intervals of three to four days.
An aqueous buffer solution including Dulbecco's phosphate buffered saline and bovine serum albumin ("-PBS/BSA solution") was prepared for use, and included a mixture of 200 mg KH2 PO4, 1.15 g Na2 HPO4, 100 mg CaCl2, 200 mg KCl, 100 mg MgCl2.6H2 O, 8 g NaCl, with distilled water added to a final 1 liter volume at room temperature, thus, forming a "PBS" solution of pH 7.4 to which was added 0.5% by weight bovine serum albumin.
An aliquot of about 7 ml was removed from the incubated culture medium and subjected to washing with the PBS/BSA solution. The washing procedure was initiated by placing the aliquot in a centrifuge (Model GT422 from Jouan, distributed Piruscio & Assoc. of Manchester, Miss.) at 1400 rpm for 6.5 minutes to separate the cells from the growth medium. The supernatant fluid was decanted, a 5 ml portion of PBS/BSA solution was transferred by pipette into the pellet, and the mixture was again centrifuged as before. The resulting supernatant fluid was decanted and the cells from the pellet were resuspended in PBS/BSA solution at a titer of about 1×10^6 cells/ml. A 500 μl portion of the solution containing the resuspended cells was placed in a microcentrifuge (Marathon 13K/M from Fisher Scientific of St. Louis, Miss.) at 3500 rpm for six minutes, to provide a washed pellet.
[…] The cells were incubated with the peptide cocktail at 37° C. for 45 minutes.
After incubation with the peptide cocktail, several antibodies were successively mixed into the incubated solution. A 75 μl portion of anti-IgM solution (a mixture of 10 μl of goat anti-human IgM stock purchased from Jackson Immuno Research of Westgrove, Pa.; and 65 μl of PBS/BSA solution) was added to the peptide cocktail for blocking of nonspecific binding of the secondary antibody. The resulting mixture was incubated for 10 minutes on ice. About 0.1 μg of a primary antibody including mouse IgG anti-human CD11a (purified according to conventional protocols at the University of Kansas Department of Pharmacology and Toxicology from an American Type Culture hybridoma cell line having Catalogue Number HB-202) was next stirred into the mixture, which was then incubated for 30 minutes at room temperature. The incubated mixture was placed in a microcentrifuge at 3500 rpm for six minutes to remove the cells from the mixture, and the cell pellet was washed two times by adding 500 μl aliquots of PBS/BSA solution and microfuging to remove non-bound antibodies from the cells as before. The resulting washed pellet was resuspended in 100 μl of a secondary antibody cocktail including 5 μl of fluorescein isothiocyanate ("FITC") labeled goat anti-mouse IgG (from CALTAG of South San Francisco, Calif.) and 95 μl of PBS/BSA solution. The resulting solution was incubated for 30 minutes at room temperature in the dark.
The incubated solution including the secondary antibody cocktail was microfuged at 3500 rpm for six minutes to remove the cells from the solution, and the cell pellet was washed two times with 500 μl portions of PBS/BSA solution, as before, to remove unbound antibodies. […]

In series [2] the test system is Molt3 cells. Put plainly: Cell metabolic assay (MTT). The method, then: After taking the photographs in Example 3 (and in some instances no photographs were taken), cell metabolic activity was assessed by an MTT assay. A 37.5 μl portion of MTT dye (purchased from SIGMA of St. Louis, Mo.), i.e., 3-[4,5-dimethyl thiazole-2yl]-2, 5- diphenyl tetrazolium bromide; thiazolyl blue) was added to each well, and incubated with the cells at 37° C. for about six hours. After incubation, a 250 μl quantity of a MTT solubilization solution (of a type that may be purchased from either Fischer Scientific of St. Louis, Mo. or BCD Labs of Lawrence, Kans.) was added to each well, and incubated with the cells at room temperature overnight. In the morning, the spectrophotometric absorption of each plate was determined at 570 nm in a microplate ELISA reader manufactured by Cambridge Technologies of Water-town, Mass., in order to assess cell viability as an indicator of potential peptide toxicity.

Series [3] addresses T2, ICAM-1 (Homo sapiens, UniProt P05362).
T2 construct: host or cells: Molt3 human T-cell leukemia line
Put plainly: Conformation modulator assay: flow cytometry of FITC-labeled RB-1-88 binding to T-cells after pre-incubation with first peptide. The following applies: first peptide 4550 μM. The method, then:
The antibody binding assay of Example 2 was twice repeated at a peptide concentration of 4550 μM, each time substituting a 455 nmol quantity of synthetic peptide selected from the group consisting of ICAM-based peptide SC-3-111 (Sequence ID No. 10) and LFA-based peptide LJCRF-4 (Sequence ID No. 16) in respective assays. Following incubation for 30 minutes at 37° C. after introduction of the first peptides, both incubated culture were supplemented by an additional quantity of FITC-labeled RB-1-88 (Sequence ID No. 19) peptide in a quantity sufficient to provide a 1.90 μM concentration in the cell/PBS solution.
Following addition of the RB-1-88 (Sequence ID No. 19) peptide, the mixture was incubated for 30 minutes at 4° C., washed three times with 500 μl PBS/BSA, resuspended in 500 μl PBS/BSA and immediately subjected to a flow cytometer analysis as before. Table 3 presents the results of this analysis, which are also depicted in FIGS. 8 (SC-3-111) and 9 (LJCRF-4).

T2 sequence (P05362 28-532): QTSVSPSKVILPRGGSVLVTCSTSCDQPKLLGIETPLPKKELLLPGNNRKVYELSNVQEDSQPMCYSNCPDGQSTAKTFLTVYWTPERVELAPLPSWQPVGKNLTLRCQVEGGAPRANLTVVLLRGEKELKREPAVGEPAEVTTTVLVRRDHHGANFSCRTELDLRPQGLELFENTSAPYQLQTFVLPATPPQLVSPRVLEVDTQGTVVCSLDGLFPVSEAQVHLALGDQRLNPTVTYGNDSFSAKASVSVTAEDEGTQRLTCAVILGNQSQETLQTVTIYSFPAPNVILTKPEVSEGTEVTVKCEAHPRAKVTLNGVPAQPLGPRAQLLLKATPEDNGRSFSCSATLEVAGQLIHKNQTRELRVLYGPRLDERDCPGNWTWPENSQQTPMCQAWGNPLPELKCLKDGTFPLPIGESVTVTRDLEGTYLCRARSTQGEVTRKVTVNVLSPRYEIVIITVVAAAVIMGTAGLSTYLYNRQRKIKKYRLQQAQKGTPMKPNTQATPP
T1 sequence (P20701 26-1170): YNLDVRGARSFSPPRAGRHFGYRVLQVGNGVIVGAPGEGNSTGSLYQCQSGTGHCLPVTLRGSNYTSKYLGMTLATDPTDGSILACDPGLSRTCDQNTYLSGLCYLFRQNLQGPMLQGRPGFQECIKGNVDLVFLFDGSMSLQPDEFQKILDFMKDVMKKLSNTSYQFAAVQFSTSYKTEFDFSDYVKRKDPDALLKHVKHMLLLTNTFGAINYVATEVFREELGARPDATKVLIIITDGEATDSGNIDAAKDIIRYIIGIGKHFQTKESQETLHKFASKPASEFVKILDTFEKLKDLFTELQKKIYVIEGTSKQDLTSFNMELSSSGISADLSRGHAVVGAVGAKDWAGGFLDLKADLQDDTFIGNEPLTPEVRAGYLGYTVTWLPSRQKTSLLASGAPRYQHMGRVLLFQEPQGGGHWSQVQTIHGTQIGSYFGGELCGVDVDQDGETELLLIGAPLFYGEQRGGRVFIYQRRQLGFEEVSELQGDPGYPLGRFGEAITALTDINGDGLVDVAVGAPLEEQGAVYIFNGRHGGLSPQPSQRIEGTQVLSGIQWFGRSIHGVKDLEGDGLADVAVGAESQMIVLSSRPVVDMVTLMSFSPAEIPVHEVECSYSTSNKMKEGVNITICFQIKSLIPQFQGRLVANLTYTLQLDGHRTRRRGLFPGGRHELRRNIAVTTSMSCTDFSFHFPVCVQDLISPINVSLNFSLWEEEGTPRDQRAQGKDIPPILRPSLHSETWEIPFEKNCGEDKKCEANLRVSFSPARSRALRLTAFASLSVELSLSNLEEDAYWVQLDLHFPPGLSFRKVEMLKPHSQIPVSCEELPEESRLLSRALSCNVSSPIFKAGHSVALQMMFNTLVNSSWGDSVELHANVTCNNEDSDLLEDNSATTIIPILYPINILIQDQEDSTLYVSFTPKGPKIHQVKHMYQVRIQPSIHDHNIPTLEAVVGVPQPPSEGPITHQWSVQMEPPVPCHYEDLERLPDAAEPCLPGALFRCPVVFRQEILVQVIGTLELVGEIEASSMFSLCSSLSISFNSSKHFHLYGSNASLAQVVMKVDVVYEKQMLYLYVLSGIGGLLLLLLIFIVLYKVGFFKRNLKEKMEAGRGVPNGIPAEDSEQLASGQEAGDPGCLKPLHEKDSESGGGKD
T1 sequence (P05107 23-769 partner): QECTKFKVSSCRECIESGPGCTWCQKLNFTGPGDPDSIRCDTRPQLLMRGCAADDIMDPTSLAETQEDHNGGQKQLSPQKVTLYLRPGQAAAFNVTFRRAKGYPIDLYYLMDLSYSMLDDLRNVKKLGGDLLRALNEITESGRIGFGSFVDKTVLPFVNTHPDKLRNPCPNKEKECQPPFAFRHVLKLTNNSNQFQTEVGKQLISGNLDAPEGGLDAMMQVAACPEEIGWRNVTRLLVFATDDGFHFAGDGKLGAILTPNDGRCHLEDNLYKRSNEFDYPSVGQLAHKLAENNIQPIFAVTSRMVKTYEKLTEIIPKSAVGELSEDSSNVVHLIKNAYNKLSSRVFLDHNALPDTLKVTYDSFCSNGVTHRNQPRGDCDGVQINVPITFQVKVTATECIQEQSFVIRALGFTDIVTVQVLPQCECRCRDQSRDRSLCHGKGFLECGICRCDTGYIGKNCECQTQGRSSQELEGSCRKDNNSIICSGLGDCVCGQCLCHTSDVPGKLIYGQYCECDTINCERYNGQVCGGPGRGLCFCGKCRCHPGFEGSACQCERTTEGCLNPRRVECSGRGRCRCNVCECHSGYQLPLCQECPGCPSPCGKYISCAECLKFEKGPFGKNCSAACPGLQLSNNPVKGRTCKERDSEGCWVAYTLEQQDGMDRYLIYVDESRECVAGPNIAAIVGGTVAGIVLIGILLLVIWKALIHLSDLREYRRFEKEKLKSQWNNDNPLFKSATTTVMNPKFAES

On to “SC-3-111: ICAM-1 based short-chain peptide, Sequence ID No. 10 (QTSVSPSKVI)”, for which the “Fluorescence, % change from control of the medium fluorescence intensity” value in series [1] (peptide 2275 μM) was -12 ± 4%; in series [1] (peptide 4550 μM, negative = blocking), -29 ± 2%. Besides, in series [1] (single above-average run (FIGS. 2, 3), peptide 4550 μM, anti-CD11a), the blocking efficiency is on record as 51%. For the same substance, the “sample median peak fluorescence intensity value” in series [1] (single run of FIG. 2 (control 264.41), anti-CD11a) is given as 128.74. For the same substance, the “% change of median peak vs control” value in series [1] (single run of FIG. 2, peptide 4550 μM, anti-CD11a) is on record as -51%. Also, the “MTT % Viability” value amounted to 93% in series [2] (peptide 230 μM), 95% in series [2] (peptide 460 μM), 89% in series [2] (peptide 910 μM) and 69% in series [2] (peptide 1820 μM). In addition, the “FACS Analysis (RB-1-88 binding)” value in series [3] (then FITC-labeled RB-1-88 1.90 μM, shift vs control) was -8%. The “negative blocking shift of RB-1-88 binding (FIG. 8)” value in series [3] (then RB-1-88 1.90 μM, called probably not significant) was 8%. In series [3] (FIGS. 8, 9), the “effect on binding of labeled peptide (RB-1-88 / LJCRF-6) to T-cell ICAM-1” value was “substantially no T-cell binding enhancement; also recorded: no effect”.
